{
  "source": "patent EP4595979A1",
  "about": "(SystImmune, Inc., dated 2024)",
  "binders": {"B1": {"name": "ADC-1-1a (antibody, human IgG1, kappa, DAR 7.59)", "heavy": "not shown", "light": "DIQMTQSPSSLSASVGDRVTITCRASQDINKYLAWYQQKPGKVPKLLIYSTSTLQSGVPSRFSGSGSGTDFTLTISSLQPEDVATYYCLQYDDLFTFGQGTKLEIKRTVAAPSVFIFPPSDEQLKSGTASVVCLLNNFYPREAKVQWKVDNALQSGNSQESVTEQDSKDSTYSLSSTLTLSKADYEKHKVYACEVTHQGLSSPVTKSFNRGEC", "modifications": "linker-payload LP-1a on a cysteine thiol of the reduced interchain disulfide (general step A); residue not stated; linker-payload LP-1a (auristatin E derivative) on cysteine thiols of the fully reduced interchain disulfides (general step A); residues not stated; average DAR 7.59"}, "B2": {"name": "ADC-C-1a (antibody, human IgG1, kappa, DAR 7.34)", "heavy": "not shown", "light": "B1 light", "modifications": "VcMMAE on a cysteine thiol of the reduced interchain disulfide (general step A); residue not stated; VcMMAE (MC-VC-PAB-MMAE) on cysteine thiols of the fully reduced interchain disulfides (general step A); residues not stated; average DAR 7.34"}, "B3": {"name": "ADC-2-1a (antibody, human IgG1, kappa, DAR 7.31)", "heavy": "not shown", "light": "B1 light", "modifications": "one linker-payload LP-2a on each light chain, maleimide partly ring-opened; residue not stated; linker-payload LP-2a (MMAE derivative) on cysteine thiols of the fully reduced interchain disulfides (general step A); residues not stated; average DAR 7.31"}, "B4": {"name": "ADC-1-2a (antibody, human IgG1, kappa, DAR 1.79)", "heavy": "not shown", "light": "DIQMTQSPSSLSASVGDRVTITCRASQDINKYLAWYQQKPGKVPKLLIYSTSTLQSGVPSRFSGSGSGTDFTLTISSLQPEDVATYYCLQYDDLFTFGQGTKLEIKRTVAAPSVFIFPPSDEQLKSGTASVVCLLNNFYPREAKVQWKVDNALQSGNSQESVTEQDSKDSTYSLSSTLTLSKADYEKHKVYACEVTHQGLSSPVCTKSFNRGEC", "modifications": "linker-payload LP-1a conjugated site-specifically after partial reduction (general step B), average DAR 1.79; chain and residue not stated"}, "B5": {"name": "ADC-2-2a (antibody, human IgG1, kappa, DAR 1.81)", "heavy": "not shown", "light": "B4 light", "modifications": "linker-payload LP-2a conjugated site-specifically after partial reduction (general step B), average DAR 1.81; chain and residue not stated"}, "B6": {"name": "ADC-C-2a (antibody, human IgG1, kappa, DAR 1.85)", "heavy": "not shown", "light": "B4 light", "modifications": "VcMMAE conjugated site-specifically after partial reduction (general step B), average DAR 1.85; chain and residue not stated"}},
  "target": "T1, Trop2 (human, UniProt P09758 27-323)",
  "T1 sequence (looked up)": "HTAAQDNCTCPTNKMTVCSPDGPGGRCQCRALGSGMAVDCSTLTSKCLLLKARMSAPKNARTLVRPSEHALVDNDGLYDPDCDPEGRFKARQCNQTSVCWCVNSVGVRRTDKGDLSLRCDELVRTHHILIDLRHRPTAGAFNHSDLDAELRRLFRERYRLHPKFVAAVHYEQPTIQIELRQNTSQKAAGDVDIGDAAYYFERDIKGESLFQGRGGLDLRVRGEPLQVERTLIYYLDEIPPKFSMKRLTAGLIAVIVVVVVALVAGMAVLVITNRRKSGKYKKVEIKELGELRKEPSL",
  "assay": "cell-based or functional assay",
  "data": [
    {"binder": "B1", "values": [
      {"measurement": "IC50 (nM), in vitro cytotoxicity (120h), MTS cell viability, A431 cells (Trop2 positive)", "result": 0.01, "unit": "nM"},
      {"measurement": "IC50 (nM), in vitro cytotoxicity (120h), MTS cell viability, BxPC-3 cells (Trop2 positive)", "result": 0.02, "unit": "nM"},
      {"measurement": "IC50 (nM), in vitro cytotoxicity (120h), MTS cell viability, NCI-N87 cells (Trop2 positive)", "result": 0.36, "unit": "nM"}
    ]},
    {"binder": "B2", "values": [
      {"measurement": "IC50 (nM), in vitro cytotoxicity (120h), MTS cell viability, A431 cells (Trop2 positive)", "result": 0.02, "unit": "nM"},
      {"measurement": "IC50 (nM), in vitro cytotoxicity (120h), MTS cell viability, BxPC-3 cells (Trop2 positive)", "result": 0.04, "unit": "nM"},
      {"measurement": "IC50 (nM), in vitro cytotoxicity (120h), MTS cell viability, NCI-N87 cells (Trop2 positive)", "result": 0.63, "unit": "nM"}
    ]},
    {"binder": "B3", "values": [
      {"measurement": "IC50 (nM), in vitro cytotoxicity (120h), MTS cell viability, A431 cells (Trop2 positive)", "result": 0.005, "unit": "nM"},
      {"measurement": "IC50 (nM), in vitro cytotoxicity (120h), MTS cell viability, BxPC-3 cells (Trop2 positive)", "result": 0.02, "unit": "nM"},
      {"measurement": "IC50 (nM), in vitro cytotoxicity (120h), MTS cell viability, NCI-N87 cells (Trop2 positive)", "result": 0.35, "unit": "nM"}
    ]},
    {"binder": "B4", "values": [
      {"measurement": "IC50 (nM), in vitro cytotoxicity (120h), MTS cell viability, A431 cells (Trop2 positive)", "result": 0.05, "unit": "nM"},
      {"measurement": "IC50 (nM), in vitro cytotoxicity (120h), MTS cell viability, BxPC-3 cells (Trop2 positive)", "result": 0.25, "unit": "nM"},
      {"measurement": "IC50 (nM), in vitro cytotoxicity (120h), MTS cell viability, NCI-N87 cells (Trop2 positive)", "result": 2.6, "unit": "nM"}
    ]},
    {"binder": "B5", "values": [
      {"measurement": "IC50 (nM), in vitro cytotoxicity (120h), MTS cell viability, A431 cells (Trop2 positive)", "result": 0.11, "unit": "nM"},
      {"measurement": "IC50 (nM), in vitro cytotoxicity (120h), MTS cell viability, BxPC-3 cells (Trop2 positive)", "result": 0.46, "unit": "nM"},
      {"measurement": "IC50 (nM), in vitro cytotoxicity (120h), MTS cell viability, NCI-N87 cells (Trop2 positive)", "result": 4.7, "unit": "nM"}
    ]},
    {"binder": "B6", "values": [
      {"measurement": "IC50 (nM), in vitro cytotoxicity (120h), MTS cell viability, A431 cells (Trop2 positive)", "result": 0.32, "unit": "nM"},
      {"measurement": "IC50 (nM), in vitro cytotoxicity (120h), MTS cell viability, BxPC-3 cells (Trop2 positive)", "result": 0.87, "unit": "nM"},
      {"measurement": "IC50 (nM), in vitro cytotoxicity (120h), MTS cell viability, NCI-N87 cells (Trop2 positive)", "result": 4.9, "unit": "nM"}
    ]}
  ]
}
